In patent US20170306001A1:

Tests used:
[1] = molecular target: native H5 HA from multiple H5N1 clades; test: cell-based or functional assay
[2] = molecular target: DL06-HA, full length HA of A/duck/Laos/3295/2006(H5N1) (clade 2.3.4) (influenza A virus A/duck/Laos/3295/2006(H5N1)); test: cell-based or functional assay

B1: Mouse MAb 9F4 (antibody, V domains shown)
VH: QQSEAELARPGASVKMSCKASGFTLTTFTIHWVKQRPGQGLEWIGYINPRSGYTDYNQKFKDNTTLTVDKSSSTAYMQLSSLTSEDSAVFYCARSYYDYDVFDYWGQGTTLTV
VL: DVQMTQSPSSLSASLGGKVTITCTARQDINKYIAWYQHKPGKGPRLLIHYTSTLQPGIPSRFSGSGSGTDYSFTISNLEPEDIATYYCLQYDNLVTFGGGTK
IC95, HApp neutralization [1]: 0.1 µg/mL | IC50, entry of HA-pseudotyped lentiviral particles into MDCK cells (luciferase) [2]: 0.01 µg/mL
